One experiment concerns cynomolgus HER3. The experiment in a line: Kinetic binding analysis by surface plasmon resonance (ProteOn XPR36, IgG capture). The settings on record: Cynomolgus antigen. Here is the method:
(§1) Kinetic binding analysis of the purified humanized variants was performed on a ProteOn™ XPR36 biosensor (BioRad, USA) employing an IgG capture assay as described by Canziani et al. (Anal. Biochem. (2004) 325:301-307) that allows for measurement of antibody affinities of whole IgG molecules against soluble antigen under monovalent conditions. Briefly, approximately 5000 resonance units (RU) of a monoclonal mouse anti-human IgG Fc antibody (GE Healthcare, Denmark) was conjugated to a GLC chip surface (BioRad, USA) according to the manufacturer's instructions, followed by capture of individual antibodies of the invention or a negative control on the anti-Fc sensor surface. […] Next, 250 μl monovalent antigen (Sino Biologicals) was injected at a flow rate of 50 μl/min in serial threefold dilutions from 100 nM stock to generate response curves. The chip surface was regenerated between cycles by stripping the captured antibody/antigen complexes off the surface with a 10-second injection of 3 M MgCl2 (GE Healthcare, Denmark) repeated three times. Finally, binding responses were fitted to a Langmuir 1:1 binding model for calculation of the on-rate (kon or ka), off-rate (koff or kd) and affinity (KD) constants using double referencing.

The target of another experiment is T1, human HER3 (Homo sapiens, UniProt P21860).
T1 construct: against soluble antigen under monovalent conditions; purchased Sino Biologicals
The experiment is described as above. Particulars: Human antigen. How it is done:
as §1

Experiment [1] concerns EGFR, HER2 and HER3 in OVCAR-8 cells. The experiment in a line: Western blot of EGFR, HER2 and HER3 in whole cell lysates (Example 6). It is filed as cell-based, human. The settings on record: OVCAR-8, 20 μg/ml, 48 hour.
The target in a further experiment is cynomolgus HER2. The experiment in a line: Kinetic binding analysis by surface plasmon resonance (ProteOn XPR36, IgG capture). Particulars: Cynomolgus antigen. Here is the method: as §1
In general terms: SPR reads the build-up and loss of mass on a sensor chip optically.

For another experiment, the target named is T2, human HER2 (Homo sapiens, UniProt P04626).
T2 construct: against soluble antigen under monovalent conditions; purchased Sino Biologicals
The experiment is described as above. Particulars: Human antigen. Here is the method:
as §1

For experiment [2], the system named is EGFR, HER2 and HER3 from humans, cynomolgus monkeys and mice, human and murine HER4. The experiment in a line: Cross-reactivity ELISA with coated antigens. Format: binding, mouse. Particulars: OD at 450 nm, 40 nM antibody, compared to chimeric parent. Here is the method:
Antibody-antigen binding was measured by ELISA with coated antigens. Human antigens were obtained from Sino Biologicals. All other antigens were produced in-house by transient expression in CHO or HEK293 cells. Chimeric and humanized antibodies, as well as an isotype control antibody, were incubated with the coated antigens at different concentrations. After wash, bound antibodies were detected by HRP-(horse radish peroxidase)-conjugated secondary antibodies. The OD signal from 40 nM antibody, measured at 450 nm using an ELISA reader, was scored from negative (−; OD<0.1) to strongly positive (+++; OD>2.5).
In general terms: In an ELISA, binding on a coated surface is turned into a signal by an enzyme label.

The subject of experiment [3] is human or cynomolgus antigen (EGFR, HER2 or HER3). The experiment can be described thus: Off-rate ranking of library hits (Octet QK384, Protein G biosensors). Format: binding. The settings on record: expression supernatant, antigen at 200 nM, dissociation 20 min. How it is done: Approximately 100 hits from each library that yielded an OD signal similar to or higher than that of the chimeric parent antibody were subjected to off-rate ranking using an Octet® QK384 instrument (Fortebio, Menlo Park, Calif.). Protein G biosensors (Fortebio) were used for capturing of antibody from 40 μl of expression supernatant followed by incubation with human or cynomolgus antigen at 200 nM. Human antigens were obtained from Sino Biologicals and cynomolgus antigens were produced in-house by transient expression in CHO or HEK293 cells (Koefoed et al. (2011) mAbs, 3:6, 1-12). Subsequently, the biosensors were incubated in PBS and the dissociation of antigen was recorded for 20 min to allow for a reliable determination of the dissociation rates. The responses were globally fitted to a Langmuir 1:1 binding model for calculation of dissociation constants.
In general terms: Biolayer interferometry detects binding as a change in optical thickness at a sensor tip.

The test system of experiment [4] is A431NS, H358, FaDu, OE19, BT474, MDA-MB-175 VII, MCF-7, N87, HN5, MFE-280 cancer cell lines. The experiment in a line: Viability assay (WST-1) of humanized variants with partner antibody and of six-antibody mixtures. It is filed as cell-based, human. Particulars: two cell lines per variant, 96 hours. How it is done:
Each humanized variant was tested in two cell lines and compared to the parental mixture of two chimeric antibodies and to a negative control antibody. […] In addition, a combination of six humanized variants (11294, 11302, 11249, 11145, 10738 and 11052; Humanized Pan-HER) was tested in a number of cell lines and compared to the combination of the six chimeric antibodies (1277, 1565, 4384, 4517, 5038 and 5082; Chimeric Pan-HER). The cell lines used, N87 gastric, FaDu head and neck, A431NS epidermoid, OE19 esophageal, HN5 head and neck, MDA-MB-175 VII breast and MFE-280 endometrial cancer, were selected on the basis of their previously determined dependency on the HER family receptors.
Prior to performing the viability assay the appropriate antibodies and antibody mixtures were diluted to a final total antibody concentration of 100 μg/ml in appropriate media supplemented with 0.5-2% FBS and 1% P/S (penicillin/streptomycin), yielding a final total antibody concentration of 50 μg/ml in the well containing the highest antibody concentration. A threefold serial dilution of the antibodies was then performed in a 384-well plate, followed by addition of relevant numbers of cells to the experimental wells. The MCF-7 cells were also stimulated with 1 nM heregulin beta. The plates were incubated for 4 days in a humidified incubator at 37° C. WST-1 reagent (Roche Applied Science, Mannheim, Germany) was added to the plates and the plates were incubated for 1-3 h at 37° C. Plates were transferred to an orbital plate shaker for one h and the absorbance was measured at 450 and 620 nm (reference wavelength) using an ELISA reader. The percentage of metabolically active cells (MAC) is calculated as a percentage of the untreated control as follows: […]

One may read the Kd as the concentration at which binding is half-saturated. Read a low Kd as higher affinity.

B1: antibody 5082: chimeric parent anti-HER3 antibody disclosed in WO 2012/059857; VH SEQ ID NO: 35, light chain SEQ ID NO: 37 (antibody)
VH: RAEVQLKESGPGLVKPSQSLSLTCSVTGYSITSAYYWNWIRQFPGNKVEWMGYIGYDGRNTYNPSLKNRISITRDTSKNQFFLKLNSLTTEDTATYYCSREGDYGYSDYWGQGTTLTVS
light: LADIVMTQATSSLSASLGDRVTVSCRASQDINNYLNWYQQKPDGTVKLLIYYTSRLQSGVPSRFSGSGSGIDYSLTISNLEQEDFVTYFCQQSETLPWTFGGGTKLELKRTVAAPSVFIFPPSDEQLKSGTASVVCLLNNFYPREAKVQWKVDNALQSGNSQESVTEQDSKDSTYSLSSTLTLSKADYEKHKVYACEVTHQGLSSPVTKSFNRGEC
In the experiment on cynomolgus HER3, B1 yielded a ka of 1.7e+06 M⁻¹ s⁻¹ and a kd of 0.00016 s⁻¹. In the experiment with human HER3, this molecule showed a ka of 910000 M⁻¹ s⁻¹ and a kd of 7.3e-05 s⁻¹. For the same molecule, the “EGFR, HER2 and HER3 levels in whole cell lysates” value in experiment [1] is recorded as “HER2 up-regulation”.

B2: antibody 4517: chimeric parent anti-HER2 antibody disclosed in WO 2012/059857; VH SEQ ID NO: 27, light chain SEQ ID NO: 29 (antibody)
VH: EVQLVESGGDLVKPGGSLKLSCAASGFTFSSYGMSWVRLTPDKRLEWVATISGGGSYTYYPDSVKGRFTISRDIAKSTLYLQMSSLKSEDTAVYYCARKGNYGNYGKLAYWGQGTSVTVS
light: DIQMTQSPASLSVSVGETVTITCRASENIYSNLAWYQQEQGKSPQLLVYAATNLADGVPSRFSGSGSGTQYSLKINSLQSEDFGSYYCQHFWGTPWTFGGGTKLEIKRTVAAPSVFIFPPSDEQLKSGTASVVCLLNNFYPREAKVQWKVDNALQSGNSQESVTEQDSKDSTYSLSSTLTLSKADYEKHKVYACEVTHQGLSSPVTKSFNRGEC
On cynomolgus HER2, B2 returned a dissociation constant (Kd) of 3.7 nM, a ka of 230000 M⁻¹ s⁻¹ and a kd of 0.00086 s⁻¹. Further, in the experiment with human HER2, the ka worked out at 260000 M⁻¹ s⁻¹ and the kd was 0.00029 s⁻¹.

B3: antibody 11006: humanized anti-HER3 antibody from chimeric parent 5082; HC SEQ ID NO: 58, LC SEQ ID NO: 59 (antibody, V domains shown)
VH: QVQLQESGPGLVKPSQTLSLTCTVSGYSITSAYYWNWIRQHPGKGVEWMGYIGYSGRNTYNPSLKNRVTISRDTSKNQFSLKLSSVTAADTAVYYCSREGDYGYSDYWGQGTLVTVSS
VL: DIQMTQSPSSLSASVGDRVTVTCRASQDTNNYLNWYQQKPGKAVKLLIYYTSRLQSGVPSRFSGSGSGTDFTLTISSLQPEDFATYFCQQSETLPWTFGQGTKVEIK
Take B3: the figures for the ka in the experiment with cynomolgus HER3 and in the experiment with human HER3 were 1.5e+06 M⁻¹ s⁻¹ and 740000 M⁻¹ s⁻¹, respectively. Besides, the values for the kd at cynomolgus HER3 and with human HER3 were 8.7e-05 s⁻¹ and below 2e-06 s⁻¹, respectively. The “KD (estimated)” value in the experiment with human HER3 (KD could not be determined due to a very slow off-rate) was “*KD could not be determined due to a very slow off-rate. Estimated to be in the picomolar range”. Further, the “cross-reactivity pattern with HER family antigens” value in experiment [2] was “binding to the same human and cynomolgus antigen combined with lack of binding to the mouse antigen or to other EGFR family receptors”. Moreover, in experiment [3], the “dissociation rate (off-rate ranking) compared to parent antibody” value is “improved dissociation rate”. For the same molecule, the “anti-proliferative effect in combination with partner antibody, compared to mixture of the two chimeric parent antibodies” value in experiment [4] is given as “highly similar anti-proliferative effects”.

The values are drawn from patent US9527913B2, “Humanized pan-HER antibody compositions” (Symphogen A/S, priority 2012, dated 2016).
